# Test results as given in patent US12636342B2, “TARS derived from Akkermansia muciniphila or fragment thereof, and use thereof” (KOREA RESEARCH INSTITUTE OF BIOSCIENCE AND BIOTECHNOLOGY, priority 2020, dated 2026).
# Entries after “also recorded” stand apart in the source; their conditions may differ.
# What was measured:
# [1] = system: mouse bone marrow-derived macrophages (BMDMs); assay: ELISA of immune cytokine secretion in BMDMs under normal conditions; assay type: cell-based; settings: normal (non-inflammatory) conditions, 24 h
# Summary of the method: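 Mouse BMDMs from femur and tibia were cultured in DMEM with 10% FBS. Cells were treated with AmTARS at 0.1, 0.2 or 0.5 μM for 24 h. Cell-free supernatants were assayed by ELISA for mouse IL-6, IL-10 and TNF-α.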
# human macrophages (THP1) = assay: ELISA of immune cytokine secretion in THP1 under normal conditions; assay type: cell-based; settings: THP1, 0.1, 0.2, 0.5 μM, 24 h
# Protocol: Specifically, mouse bone marrow-derived macrophages (BMDMs) as mouse-derived immune cells were extracted from the mouse thighbone and shinbone, and then cultured in DMEM containing 10% fetal bovine serum (FBS) and antibiotics. Human macrophages (THP1) as human-derived immune cells were cultured in RPMI media containing 10% FBS and antibiotics.
# The cultured cells were treated with AmTARS at 0.1 μM, 0.2 μM, and 0.5 μM for 24 h to obtain cell cultures. For cell removal, the media were centrifuged at 500×g for 10 min to obtain supernatants, which were then analyzed using an ELISA set (mouse interleukin (IL)-6, mouse IL-10, mouse tumor necrosis factor (TNF)-α, human IL-6, human IL-10, human TNF-α; BD Biosciences) to investigate the secretion of mouse- and human-derived immune cytokines.
# [2] = system: mouse macrophage Raw264.7; assay: Phosphorylation of signal transducers in LPS-treated Raw264.7; assay type: cell-based; settings: Raw264.7, LPS, 0.5 to 3 hours
# Protocol: To determine which signaling pathway was involved in the anti-inflammatory effect by the immune cytokine secretion regulation of […], an inflammatory environment was created through LPS treatment on mouse macrophage Raw264.7 as mouse-derived immune cells, and then changes in phosphorylation of signal transducers involved in the regulation of immune cytokine secretion according to the presence or absence of […] treatment and the elapsed time (0.5 to 3 hours) were investigated. Raw264.7 cells were cultured in DMEM (Hyclone) containing 10% FBS and antibiotics.
# [3] = system: mouse model of dextran sulfate sodium (DSS)-induced colitis; assay: DSS-induced colitis (inflammatory bowel disease) mouse model, intraperitoneal administration; assay type: in vivo; settings: for distribution of B cells in the colon: normal mice
# Protocol: We evaluated the anti-inflammatory function of AmTARS in a mouse model of dextran sulfate sodium (DSS)-induced colitis. First, we assessed dose-dependent responses (i.e., changes in body weight and colon length) to intraperitoneal (i.p.) administration of AmTARS (0.05-0.4 mg/kg) once every other day for 10 days (FIG. 10A).
# The disease activity score was calculated by adding up scores ranging from 0 to 4 points for each item of bloody stool, diarrhea, and weight loss, and the epithelial damage score was calculated by assigning 0 to 4 points according to the degree of colon tissue damage.
# Next, to measure IgA, mouse feces were collected and diluted in PBS containing a protein inhibitor, and then a supernatant with impurities removed was obtained, and 100 μL was placed in each well of a 96-well plate to perform protein coating at 4° C. for 2 h. The plate was washed three times with a washing solution (50 mM Tris, 0.2% in PBS) and then incubated with 100 μL of blocking solution at room temperature for 1-2 h, followed by washing. HRP conjugated IgA antibody (1:30000) was added and then incubated at room temperature for 1 h, followed by washing. Thereafter, 100 μL of a substrate solution was added, followed by incubation for 30 min, and then 50 μL of a stop solution was added, followed by measurement at 405-450 nm by an ELISA reader. […]
# [4] = system: peritoneal macrophages from TLR2-KO mice; assay: M2 macrophage polarization in TLR2-KO mice under non-inflammatory conditions; assay type: in vivo, mouse; settings: 24 h
# Protocol: (A and B) AmTARS interacts directly with TLR2. Pull-down assay using lysates of HEK 293T cells transfected with Strep-AmTARS and TLR2-FLAG (A). The proteins precipitated by an anti-Strep antibody were analyzed by western blotting. In vitro interaction assay using purified TLR2-FLAG and His-tagged AmTARS proteins (B). Purified TLR2-FLAG was mixed with purified His-tagged AmTARS protein. His-tagged protein was precipitated by Ni-NTA, eluted, and analyzed by SDS-PAGE. (C) TLR2-dependent anti-inflammatory function of AmTARS in BMDMs (n=6 per group). (D) The unique regions within AmTARS are essential for anti-inflammatory function in a TLR2-dependent manner (n=8 per wild-type group and n=6 per TLR2 KO group). BMDMs from WT or TLR2-KO mice were treated with the indicated proteins (C and D). (E-I) TLR2-dependent function of AmTARS in vivo. WT or TLR2-KO mice with DSS-induced colitis were injected with either PBS or AmTARS. Daily changes in disease activity scores (E). Intestinal epithelial damage, as analyzed by H&E staining (F), and damage scores (G) (n=3 per group). […] After 24 h, PECs were isolated, and the percentage of M2 macrophages (CD206+CD11b+F4/80+) was measured by flow cytometry. […] P-values were calculated by an unpaired two-tailed Student's t-test.
# [5] = DSS-induced colitis mice, i.p., AmTARS 0.2 mg/kg
# [6] = DSS-induced colitis mice, particularly proximal colon, versus control mice
# [7] = i.p. 0.05-0.4 mg/kg once every other day for 10 days
# [8] = inflammatory bowel disease mouse model
# [9] = normal mice (control of B cell-deficient experiment)
molecule,measurement,setting,value
"Akkermansia muciniphila-derived threonyl-tRNA synthetase (TARS) (protein, Akkermansia muciniphila TARS) MSEHKERKTLEERQQMSDLERLRHSCAHVLATAICRLWPDAQLAGGPAVDNGFYYDVELDHRISTEDFERIEEEMKKVVKENQVFQKEVISRADAMKMAESGELGALGPRSEPSRFKIDLLNDIPEDEEISLYRNGDFTDLCAGPHVGRTGNCKAFKIMSVASAFYKGDKNRPMLQRIYGTCFPNRTQLDEHLERLEEARRRDHRKLGRELGLFCIDESVGQGLILWKPKGALIRRSLQDFITEELDKLGYSQVYTPNIGKLDLYRTSGHFPYYQESQYAPIPERDAMEKLSQEGASCAELFNGLATGTIEGYMLKPMNCPHHIKIYANDAHSYRDLPVRLAEFGTVYRWEQSGELGGMTRVRGFTQDDAHIFCTPDQLAGEIRQCLGIVKTIFGTLGMTDYRVRLSMRDPESDKYVGSPENWDKAEQALREAAEWLGADYSEEAGEAAFYGPKIDFIVRDAIGREWQLGTVQVDYNLPERFDLHYTGADNKPHRPVMVHRAPFGSMERFTGLLIEHFEGKFPTWLSPEQVRVLPISDKVTDVAAAHRTALAARGVRVTVDETPDKIGAKIRNARLDRVPYMLVLGQREAEDGTVSVRHRDKGDLGAMPFEQFADLVAREIAERHISPVI",secretion/production of IL-6,[1],not secreted; also recorded: no effect
same,secretion/production of IL-10,[1],increased in a dose-dependent manner; also recorded: significant increase; also recorded: induced production; also recorded: specific to AmTARS
same,secretion/production of TNF-α,[1],not secreted; also recorded: no effect
same,secretion of IL-6,human macrophages (THP1),not secreted
same,secretion of IL-10,human macrophages (THP1),increased in a dose-dependent manner
same,secretion of TNF-α,human macrophages (THP1),not secreted
same,extracellular signal-regulated kinase (ERK),[2],not affected
same,phosphorylation of NF-kB,[2],distinctive differences in phosphorylation from a control from 2 h
same,phosphorylation of c-Jun N-terminal kinase (JNK),[2],affected through the regulation of phosphorylation from 30 min
same,phosphorylation of p38,[2],distinctive differences in phosphorylation from a control from 2 h
same,therapeutic effects on colitis pathology,[3]; AmTARS 0.2 mg kg-1 versus mIL-10 0.02 mg kg-1,comparable with those of IL-10
same,IL-10-positive macrophage (CD11b+F4/80+IL-10+) numbers within colonic cells,[3]; DSS-induced colitis mice,restored
same,IL-10 levels in serum,[3]; DSS-induced colitis mice,increased
same,body weight loss,[3]; [5],ameliorated
same,colon shortening / shortening of the intestine,[3]; [5],ameliorated
same,disease activity scores,[3]; [5],ameliorated
same,disruption of the epithelial lining,[3]; [6],significantly lower
same,epithelial damage score,[3]; [6],significantly lower
same,colitis-induced infiltration of inflammatory monocytes (CD11b+F4/80−),"[3]; colon cells, DSS-induced colitis mice",significantly suppressed
same,body weight loss,"[3]; i.p. 0.4 mg/kg, up to 7 days",significantly attenuated
same,"body weight loss, dose response",[3]; [7],attenuated body weight loss and colon shortening in a dose-dependent manner
same,"colon shortening, dose response",[3]; [7],attenuated body weight loss and colon shortening in a dose-dependent manner
same,secretion of the cytokine IL-10 in the mouse plasma,[3]; [8],increased the secretion
same,distribution of B cells in the colon,[3]; [8],increase in B cells
same,distribution of B cells in the colon,"[3]; inflammatory bowel disease mouse model, listed as TARS",significantly increased
same,amount of IgA increased due to an inflammatory response,"[3]; mouse feces, ELISA",reduced the amount of IgA
same,colon tissue damage due to inflammatory bowel disease,[3]; [9],alleviated
same,intestine length reduction due to inflammatory bowel disease,[3]; [9],alleviated
same,M2 macrophage polarization of peritoneal macrophages,"[4]; TLR2-KO mice, non-inflammatory conditions",did not cause M2 macrophage polarization
same,M2 macrophages in PECs isolated from TLR2-KO mice (FIG. 28K),[4]; TLR2-KO,no M2 macrophages were observed
